One may read the Kd as a measure of binding affinity in units of concentration.

The text below walks through data of PMC7603069, “Crucial Role of the C-Terminal Domain of Hfq Protein in Genomic Instability”.

Series [1] has as its target T1, Hfq-CTR peptide (Escherichia coli, UniProt P0A6X3).
T1 chain: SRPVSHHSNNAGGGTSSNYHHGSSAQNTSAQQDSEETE
Put plainly: EMSA?; method not stated for dG7; EMSA: quadruplex prepared in water (95 C 5 min, slow cooling), 20 min at room temperature; native 4-20% polyacrylamide gel in TAE pH 8.0 (40 mM Tris-acetate, 1). As to conditions: parallel G-quadruplex. Background: A gel shift assay detects complexes by their altered migration in electrophoresis.

Series [2] deals with T1, Hfq-CTR peptide. Put plainly: EMSA; quadruplex annealed in water without salt; EMSA: quadruplex prepared in water (95 C 5 min, slow cooling), 20 min at room temperature; native 4-20% polyacrylamide gel in TAE pH 8.0 (40 mM Tris-acetate, 1). As to conditions: parallel G-quadruplex.

GGGGGGG (structured_DNA) [dG7] yielded a Kd with Hfq-CTR peptide [1] of 0.981 ± 0.096 µM.
With GGGTGGGTGGGTGGGT (structured_DNA) [d(G3T)4], in the series with Hfq-CTR peptide [2], the Kd stood at 1.06 ± 0.074 µM.
